Experimental data from article PMC7174398.
Values belong to the substance of their own block, whether it stands above or below them.

How the values were obtained:
[1] = biological target: mHsp60 S464C variant (human); experiment: SEC-MALS; mHsp60 (WT or variant) with mHsp10, pre-incubated with 1 mM ATP, 1 mM BeCl2 and 10 mM NaF for 5 min; Superose-6, ~25 C
[2] = biological target: mHsp60 S464C variant (human); experiment: native gel or EMSA; 15 uM mHsp60 variant pre-incubated 5 min without nucleotide or with ADP in 20 mM Tris-HCl pH 7.7, 20 mM MgCl2, 50 mM KCl; 6% native PAGE
[3] = biological target: mHsp60 S464R variant (human); experiment: SEC-MALS; mHsp60 (WT or variant) with mHsp10, pre-incubated with 1 mM ATP, 1 mM BeCl2 and 10 mM NaF for 5 min; Superose-6, ~25 C
[4] = biological target: mHsp60 S464R/K109E variant (human); experiment: as above

- stoichiometry N [1]: 14
- stoichiometry N [2]: 7
Substance: mHsp60 S464C variant (natural protein)

- stoichiometry N [3]: 7
Substance: mHsp60 S464R variant (natural protein)

- stoichiometry N [4]: 7
Substance: mHsp60 S464R/K109E variant (natural protein)
